Data taken from patent US20150065381A1.
Several values for one entry are separate records, joined by “and”; a condition that tells them apart may be missing. Equal entries are not always repeated.

Key:
[1] = molecular target: HIV-1 envelope of gp160 clone AG-010.c11 (HIV-1); test: capture ELISA, plate 2, mAb 2.5 ug/ml
[2] = molecular target: HIV-1 envelope of gp160 clone B-Acute-010.c08 (HIV-1); test: capture ELISA, plate 2, mAb 2.5 ug/ml
[3] = molecular target: HIV-1 envelope of gp160 clone AG-010.c14 (HIV-1); test: capture ELISA, plate 2, mAb 2.5 ug/ml
[4] = molecular target: HIV-1 envelope of gp160 clone B-Acute-008.c11 (HIV-1); test: capture ELISA, plate 2, mAb 2.5 ug/ml
[5] = molecular target: HIV-1 JRCSF envelope (HIV-1) (UniProt P20871); test: capture ELISA, plate 2, mAb 2.5 ug/ml
[6] = molecular target: HIV-1 envelope clone F1-002.c11 (multiclade gp160 clone panel) (HIV-1); test: capture ELISA, plate 2, mAb 2.5 ug/ml
[7] = molecular target: HIV-1 envelope clone G-011.c05 (multiclade gp160 clone panel) (HIV-1); test: capture ELISA, plate 2, mAb 2.5 ug/ml
[8] = molecular target: HIV-1 envelope of gp160 clone B-Acute-010.c09 (HIV-1); test: capture ELISA, plate 2, mAb 2.5 ug/ml
[9] = molecular target: HIV-1 envelope clone BF-002.c08 (multiclade gp160 clone panel) (HIV-1); test: capture ELISA, plate 2, mAb 2.5 ug/ml
[10] = molecular target: HIV-1 16055 envelope (HIV-1); test: capture ELISA, plate 2, mAb 2.5 ug/ml
[11] = molecular target: HIV-1 envelope of gp160 clone AG-010.c11 (HIV-1); test: capture ELISA, plate 2, mAb 0.3 ug/ml
[12] = molecular target: HIV-1 JRFL envelope (HIV-1); test: capture ELISA, plate 2, mAb 0.3 ug/ml
[13] = molecular target: HIV-1 envelope of gp160 clone B-Chronic-014.c02 (HIV-1); test: capture ELISA, plate 2, mAb 0.3 ug/ml
[14] = molecular target: HIV-1 envelope clone F1-002.c16 (multiclade gp160 clone panel) (HIV-1); test: capture ELISA, plate 2, mAb 0.3 ug/ml
[15] = molecular target: HIV-1 envelope of gp160 clone B-Acute-010.c08 (HIV-1); test: capture ELISA, plate 2, mAb 0.3 ug/ml
[16] = molecular target: HIV-1 envelope of gp160 clone B-Acute-009-c08 (HIV-1); test: capture ELISA, plate 2, mAb 0.3 ug/ml
[17] = molecular target: HIV-1 envelope clone BF-002.c05 (multiclade gp160 clone panel) (HIV-1); test: capture ELISA, plate 2, mAb 0.3 ug/ml
[18] = molecular target: HIV-1 envelope of gp160 clone AG-010.c14 (HIV-1); test: capture ELISA, plate 2, mAb 0.3 ug/ml
[19] = molecular target: HIV-1 envelope of gp160 clone B-Acute-008.c11 (HIV-1); test: capture ELISA, plate 2, mAb 0.3 ug/ml
[20] = molecular target: HIV-1 JRCSF envelope (HIV-1) (UniProt P20871); test: capture ELISA, plate 2, mAb 0.3 ug/ml
[21] = molecular target: HIV-1 envelope clone F1-002.c11 (multiclade gp160 clone panel) (HIV-1); test: capture ELISA, plate 2, mAb 0.3 ug/ml
[22] = molecular target: HIV-1 envelope clone G-011.c02 (multiclade gp160 clone panel) (HIV-1); test: capture ELISA, plate 2, mAb 0.3 ug/ml
[23] = molecular target: HIV-1 envelope clone G-011.c05 (multiclade gp160 clone panel) (HIV-1); test: capture ELISA, plate 2, mAb 0.3 ug/ml
[24] = molecular target: HIV-1 envelope of gp160 clone B-Acute-010.c09 (HIV-1); test: capture ELISA, plate 2, mAb 0.3 ug/ml
[25] = molecular target: HIV-1 envelope clone BF-002.c08 (multiclade gp160 clone panel) (HIV-1); test: capture ELISA, plate 2, mAb 0.3 ug/ml
[26] = molecular target: HIV-1 16055 envelope (HIV-1); test: capture ELISA, plate 2, mAb 0.3 ug/ml
[27] = molecular target: BG505 envelope (gp120 monomer released from lysed pseudovirus) (HIV-1); test: antigen capture ELISA, mAb 0.8 ug/ml, plate 1
[28] = molecular target: aMLV envelope (from lysed pseudovirus); test: antigen capture ELISA, mAb 0.8 ug/ml, plate 1
[29] = molecular target: HIV-1 envelope of gp160 clone AG-010.c11 (HIV-1); test: capture ELISA, plate 1, mAb 0.3 ug/ml
[30] = molecular target: HIV-1 JRFL envelope (HIV-1); test: capture ELISA, plate 1, mAb 0.3 ug/ml
[31] = molecular target: HIV-1 envelope clone BF-002.c05 (multiclade gp160 clone panel) (HIV-1); test: capture ELISA, plate 1, mAb 0.3 ug/ml
[32] = molecular target: HIV-1 envelope of gp160 clone B-Acute-008.c11 (HIV-1); test: capture ELISA, plate 1, mAb 0.3 ug/ml
[33] = molecular target: HIV-1 JRCSF envelope (HIV-1) (UniProt P20871); test: capture ELISA, plate 1, mAb 0.3 ug/ml
[34] = molecular target: HIV-1 envelope clone F1-002.c11 (multiclade gp160 clone panel) (HIV-1); test: capture ELISA, plate 1, mAb 0.3 ug/ml
[35] = molecular target: HIV-1 envelope clone G-011.c02 (multiclade gp160 clone panel) (HIV-1); test: capture ELISA, plate 1, mAb 0.3 ug/ml
[36] = molecular target: HIV-1 envelope of gp160 clone B-Acute-010.c09 (HIV-1); test: capture ELISA, plate 1, mAb 0.3 ug/ml
[37] = molecular target: HIV-1 envelope clone BF-002.c08 (multiclade gp160 clone panel) (HIV-1); test: capture ELISA, plate 1, mAb 0.3 ug/ml
[38] = molecular target: HIV-1 16055 envelope (HIV-1); test: capture ELISA, plate 1, mAb 0.3 ug/ml

PGT145 (antibody)
ELISA OD [1]: 0.08 OD | ELISA OD [2]: 0.316 OD | ELISA OD [3]: 0.076 OD | ELISA OD [4]: 0.103 OD | ELISA OD [5]: 0.173 OD and 0.086 OD | ELISA OD [6]: 0.072 OD | ELISA OD [7]: 0.119 OD | ELISA OD [8]: 0.074 OD | ELISA OD [9]: 0.073 OD | ELISA OD [10]: 0.079 OD and 0.067 OD | ELISA OD [11]: 0.075 OD | ELISA OD [12]: 0.068 OD and 0.08 OD | ELISA OD [13]: 0.058 OD | ELISA OD [14]: 0.254 OD | ELISA OD [15]: 0.088 OD | ELISA OD [16]: 0.084 OD | ELISA OD [17]: 0.114 OD | ELISA OD [18]: 0.061 OD | ELISA OD [19]: 0.092 OD | ELISA OD [20]: 0.067 OD and 0.115 OD | ELISA OD [21]: 0.059 OD | ELISA OD [22]: 0.104 OD | ELISA OD [23]: 0.074 OD | ELISA OD [24]: 0.082 OD | ELISA OD [25]: 0.088 OD | ELISA OD [26]: 0.066 OD and 0.1 OD | ELISA OD [27]: 0.066 OD | ELISA OD [28]: 0.056 OD and 0.073 OD | ELISA OD [29]: 0.06 OD | ELISA OD [30]: 0.063 OD and 0.071 OD | ELISA OD [31]: 0.106 OD | ELISA OD [32]: 0.099 OD | ELISA OD [33]: 0.083 OD and 0.072 OD | ELISA OD [34]: 0.061 OD | ELISA OD [35]: 0.084 OD | ELISA OD [36]: 0.065 OD | ELISA OD [37]: 0.065 OD | ELISA OD [38]: 0.057 OD and 0.069 OD

PG16 (antibody)
ELISA OD [1]: 0.272 OD | ELISA OD [2]: 0.171 OD | ELISA OD [3]: 0.686 OD | ELISA OD [4]: 0.267 OD | ELISA OD [5]: 0.172 OD and 0.21 OD | ELISA OD [6]: 0.121 OD | ELISA OD [7]: 0.126 OD | ELISA OD [8]: 0.155 OD | ELISA OD [9]: 0.108 OD | ELISA OD [11]: 0.167 OD | ELISA OD [13]: 0.222 OD | ELISA OD [14]: 0.224 OD | ELISA OD [15]: 0.11 OD | ELISA OD [16]: 0.077 OD | ELISA OD [17]: 0.361 OD | ELISA OD [18]: 0.337 OD | ELISA OD [19]: 0.141 OD | ELISA OD [20]: 0.133 OD and 0.167 OD | ELISA OD [21]: 0.098 OD | ELISA OD [22]: 0.09 OD | ELISA OD [23]: 0.095 OD | ELISA OD [24]: 0.071 OD | ELISA OD [25]: 0.097 OD | ELISA OD [27]: 0.165 OD | ELISA OD [28]: 0.073 OD and 0.056 OD | ELISA OD [29]: 0.141 OD | ELISA OD [31]: 0.352 OD | ELISA OD [32]: 0.163 OD | ELISA OD [33]: 0.122 OD and 0.186 OD | ELISA OD [34]: 0.088 OD | ELISA OD [35]: 0.063 OD | ELISA OD [36]: 0.062 OD | ELISA OD [37]: 0.109 OD

PG9 (antibody)
ELISA OD [1]: 0.597 OD | ELISA OD [2]: 0.278 OD | ELISA OD [3]: 0.834 OD | ELISA OD [4]: 0.168 OD | ELISA OD [5]: 0.177 OD and 0.186 OD | ELISA OD [7]: 0.161 OD | ELISA OD [8]: 0.106 OD | ELISA OD [10]: 0.225 OD and 0.219 OD | ELISA OD [11]: 0.257 OD | ELISA OD [12]: 0.06 OD and 0.056 OD | ELISA OD [13]: 0.479 OD | ELISA OD [15]: 0.079 OD | ELISA OD [16]: 0.057 OD | ELISA OD [18]: 0.274 OD | ELISA OD [19]: 0.097 OD | ELISA OD [20]: 0.113 OD and 0.131 OD | ELISA OD [22]: 0.052 OD | ELISA OD [23]: 0.076 OD | ELISA OD [24]: 0.074 OD | ELISA OD [26]: 0.118 OD and 0.146 OD | ELISA OD [27]: 0.261 OD | ELISA OD [28]: 0.091 OD and 0.06 OD | ELISA OD [29]: 0.278 OD | ELISA OD [30]: 0.066 OD and 0.072 OD | ELISA OD [32]: 0.114 OD | ELISA OD [33]: 0.158 OD and 0.171 OD | ELISA OD [35]: 0.064 OD | ELISA OD [36]: 0.073 OD | ELISA OD [38]: 0.184 OD and 0.188 OD
